# Target: sim3-GFP (Arabidopsis thaliana) (UniProt P93002)
# Test: sim3-GFP IP, LC-MS/MS
# sim3-GFP (Arabidopsis thaliana), sequence (P93002 other isoform, or with tags, fused parts or gaps): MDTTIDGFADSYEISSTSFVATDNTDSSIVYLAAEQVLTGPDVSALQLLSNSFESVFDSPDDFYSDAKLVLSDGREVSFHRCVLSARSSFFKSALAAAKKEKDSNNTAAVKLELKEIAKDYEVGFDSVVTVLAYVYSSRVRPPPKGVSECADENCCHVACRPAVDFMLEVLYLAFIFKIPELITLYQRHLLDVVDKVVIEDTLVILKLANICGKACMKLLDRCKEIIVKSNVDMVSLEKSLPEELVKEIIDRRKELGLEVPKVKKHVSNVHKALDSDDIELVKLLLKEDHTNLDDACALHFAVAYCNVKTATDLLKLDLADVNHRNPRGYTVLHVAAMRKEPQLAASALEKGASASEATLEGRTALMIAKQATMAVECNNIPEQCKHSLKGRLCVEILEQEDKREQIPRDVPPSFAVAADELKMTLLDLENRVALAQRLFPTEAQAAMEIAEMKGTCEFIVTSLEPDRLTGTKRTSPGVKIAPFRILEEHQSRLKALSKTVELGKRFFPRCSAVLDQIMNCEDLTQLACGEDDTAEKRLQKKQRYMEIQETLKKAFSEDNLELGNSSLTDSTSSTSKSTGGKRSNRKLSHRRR
# WAK4, wall associated kinase 4, sequence (Q9LMN6 23-738): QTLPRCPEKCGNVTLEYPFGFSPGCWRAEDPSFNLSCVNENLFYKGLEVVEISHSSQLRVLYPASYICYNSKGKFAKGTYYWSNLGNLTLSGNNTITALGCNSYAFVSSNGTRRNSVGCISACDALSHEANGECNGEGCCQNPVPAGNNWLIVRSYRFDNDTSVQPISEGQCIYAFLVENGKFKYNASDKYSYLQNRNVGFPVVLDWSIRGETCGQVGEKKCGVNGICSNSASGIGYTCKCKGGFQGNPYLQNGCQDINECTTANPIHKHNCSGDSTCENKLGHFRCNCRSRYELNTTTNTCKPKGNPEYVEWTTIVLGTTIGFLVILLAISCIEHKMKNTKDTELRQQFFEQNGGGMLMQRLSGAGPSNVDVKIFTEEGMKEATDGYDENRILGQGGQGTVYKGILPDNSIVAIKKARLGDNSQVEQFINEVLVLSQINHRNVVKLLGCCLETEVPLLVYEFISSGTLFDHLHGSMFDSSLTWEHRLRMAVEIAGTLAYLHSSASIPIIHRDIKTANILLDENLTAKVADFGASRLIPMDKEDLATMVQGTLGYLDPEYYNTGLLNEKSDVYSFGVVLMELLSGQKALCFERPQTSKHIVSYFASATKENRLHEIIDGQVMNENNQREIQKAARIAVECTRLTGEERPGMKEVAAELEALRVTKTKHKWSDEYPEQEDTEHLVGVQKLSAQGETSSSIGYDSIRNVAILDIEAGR
# TPS10, trehalose phosphate synthase, sequence (O80738 whole entry): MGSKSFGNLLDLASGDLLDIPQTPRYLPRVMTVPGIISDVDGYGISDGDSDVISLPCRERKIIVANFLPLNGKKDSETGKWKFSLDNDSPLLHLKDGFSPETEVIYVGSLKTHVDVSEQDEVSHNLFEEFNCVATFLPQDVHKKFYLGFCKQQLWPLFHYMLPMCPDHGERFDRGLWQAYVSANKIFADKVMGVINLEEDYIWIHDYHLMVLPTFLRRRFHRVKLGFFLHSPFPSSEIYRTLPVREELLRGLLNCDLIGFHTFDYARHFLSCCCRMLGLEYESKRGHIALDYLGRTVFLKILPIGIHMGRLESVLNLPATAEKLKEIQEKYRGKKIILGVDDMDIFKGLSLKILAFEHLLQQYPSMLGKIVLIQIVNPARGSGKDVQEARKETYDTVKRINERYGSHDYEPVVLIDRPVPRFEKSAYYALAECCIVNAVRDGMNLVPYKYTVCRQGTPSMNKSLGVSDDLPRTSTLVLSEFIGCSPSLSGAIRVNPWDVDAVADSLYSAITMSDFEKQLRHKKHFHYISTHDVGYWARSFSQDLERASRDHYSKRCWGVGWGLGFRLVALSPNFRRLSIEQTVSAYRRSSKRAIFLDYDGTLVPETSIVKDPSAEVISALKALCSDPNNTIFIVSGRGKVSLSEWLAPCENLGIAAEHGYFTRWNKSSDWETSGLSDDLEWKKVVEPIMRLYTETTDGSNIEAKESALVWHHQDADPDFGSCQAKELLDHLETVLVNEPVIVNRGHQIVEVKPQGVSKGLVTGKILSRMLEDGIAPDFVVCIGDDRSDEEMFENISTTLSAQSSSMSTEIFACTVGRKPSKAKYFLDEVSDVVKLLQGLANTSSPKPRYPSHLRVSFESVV
# TOC86, translocon at the outer envelope membrane of chloroplasts 159, sequence (O81283 whole entry): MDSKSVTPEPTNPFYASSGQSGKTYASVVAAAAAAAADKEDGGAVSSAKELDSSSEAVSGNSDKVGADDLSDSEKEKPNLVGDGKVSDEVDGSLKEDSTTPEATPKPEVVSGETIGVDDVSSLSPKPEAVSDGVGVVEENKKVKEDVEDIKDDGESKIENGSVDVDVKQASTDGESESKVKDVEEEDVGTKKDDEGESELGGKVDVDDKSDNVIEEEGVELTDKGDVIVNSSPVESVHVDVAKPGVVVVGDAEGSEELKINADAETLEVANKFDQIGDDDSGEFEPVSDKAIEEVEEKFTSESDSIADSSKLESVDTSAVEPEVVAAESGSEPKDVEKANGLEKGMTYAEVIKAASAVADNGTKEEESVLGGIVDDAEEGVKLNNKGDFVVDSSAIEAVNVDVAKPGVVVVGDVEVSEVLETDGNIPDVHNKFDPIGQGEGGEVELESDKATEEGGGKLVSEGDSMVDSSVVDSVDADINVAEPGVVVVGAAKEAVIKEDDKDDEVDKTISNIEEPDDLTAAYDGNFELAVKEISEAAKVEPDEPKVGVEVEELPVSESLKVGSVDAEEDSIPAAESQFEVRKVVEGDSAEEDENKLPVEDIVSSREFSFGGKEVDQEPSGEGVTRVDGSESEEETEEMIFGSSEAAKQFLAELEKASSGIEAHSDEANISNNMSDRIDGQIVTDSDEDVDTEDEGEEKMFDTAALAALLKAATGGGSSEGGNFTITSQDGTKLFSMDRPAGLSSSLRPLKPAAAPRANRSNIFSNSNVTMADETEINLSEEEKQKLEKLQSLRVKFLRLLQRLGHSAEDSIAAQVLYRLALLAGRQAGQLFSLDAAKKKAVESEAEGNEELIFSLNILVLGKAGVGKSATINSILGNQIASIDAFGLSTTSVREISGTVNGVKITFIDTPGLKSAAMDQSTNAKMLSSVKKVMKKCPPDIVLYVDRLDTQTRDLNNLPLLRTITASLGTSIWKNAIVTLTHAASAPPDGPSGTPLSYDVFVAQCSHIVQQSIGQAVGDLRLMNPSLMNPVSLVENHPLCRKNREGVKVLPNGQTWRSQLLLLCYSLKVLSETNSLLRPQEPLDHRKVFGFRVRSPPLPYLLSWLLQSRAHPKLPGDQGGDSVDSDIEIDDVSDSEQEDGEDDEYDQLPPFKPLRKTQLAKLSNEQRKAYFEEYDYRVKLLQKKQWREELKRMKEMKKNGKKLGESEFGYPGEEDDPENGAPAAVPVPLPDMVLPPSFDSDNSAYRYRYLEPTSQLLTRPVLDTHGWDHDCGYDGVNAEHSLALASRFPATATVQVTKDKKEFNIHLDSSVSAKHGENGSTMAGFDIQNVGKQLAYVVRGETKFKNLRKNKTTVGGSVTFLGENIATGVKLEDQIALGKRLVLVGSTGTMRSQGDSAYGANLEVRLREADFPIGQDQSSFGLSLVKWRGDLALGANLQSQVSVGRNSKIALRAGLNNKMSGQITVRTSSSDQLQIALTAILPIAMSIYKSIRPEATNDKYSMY
row,Molecule,Normalized Fold Change: SA vs Mock [fold]
1,"TPS10, trehalose phosphate synthase",2100
2,"TTG1, Transducin/WD40 repeat-like superfamily protein (from UniProt Q9XGN1 1-341)",3.34
3,Transducin/WD40 repeat-like superfamily protein (AT3G50590),3400
4,"UBQ6, ubiquitin 6",2.04
5,"WAK4, wall associated kinase 4",8.98
6,"TCH4, XTH22, Xyloglucan endotransglucosylase/hydrolase family protein (protein, UniProt Q38857 22-284, looked up) Xyloglucan endotransglucosylase/hydrolase protein 22: NFQRDVEITWGDGRGQIKNNGELLTLSLDKSSGSGFQSKNEYLFGKVSMQMKLVPGNSAGTVTTLYLKSPGTTWDEIDFEFLGNSSGEPYTLHTNVYTQGKGDKEQQFKLWFDPTANFHTYTILWNPQRIIFTVDGTPIREFKNMESLGTLFPKNKPMRMYSSLWNADDWATRGGLVKTDWSKAPFTASYRGFQQEACVWSNGKSSCPNASKQGTTTGSWLSQELDSTAQQRMRWVQRNYMIYNYCTDAKRFPQGLPKECLAA",102
7,"HDA15, histone deacetylase 15 (protein, UniProt Q8GXJ1 1-552, looked up) Histone deacetylase 15: MVVETIERSCEGSKRRHVNGGDIAVPCSGEECSNGDINVAPGVSAKRARVSREMTFEDIYGADALLNDDDDEDDDCDWEPVQAPMEFVKWCCVNCTMSNPGDMVHCCICGEHKESGILRHGYLASPFFKDTGLIEVEEKYGGSSSATSSTAVGFDERMLLHSEFEVKAQPHPERPDRLRAIAASLATAGVFPGRCLPINAREITKQELQMVHTSEHVDAVDTTSQLLYSYFTSDTYANEYSARAARLAAGLCADLATDIFTGRVKNGFALVRPPGHHAGVRHAMGFCLHNNAAVAALVAQAAGAKKVLIVDWDVHHGNGTQEIFEQNKSVLYISLHRHEGGNFYPGTGAADEVGSNGGEGYCVNVPWSCGGVGDKDYIFAFQHVVLPIASAFSPDFVIISAGFDAARGDPLGCCDVTPAGYSRMTQMLGDLCGGKMLVILEGGYNLRSISASATAVIKVLLGENPENELPIATTPSVAGLQTVLDVLNIQLEFWPSLAISYSKLLSELEARLIENKKNQMKRKVVRVPTWWKWGRKKLLYNFLSARMISRSK",2570
8,"ISU1, SufE/NifU family protein (protein, UniProt O49627 51-167, looked up) Iron-sulfur cluster assembly protein 1: PNVGTGLVGAPACGDVMKLQIKVDEKTGQIVDARFKTFGCGSAIASSSVATEWVKGKAMEDVLTIKNTEIAKHLSLPPVKLHCSMLAEDAIKAAVKDYKEKRVKTNGAAAAGETTQA",3.44
9,"ARD3, acireductone dioxygenase 3 (protein, UniProt Q8W108 1-199, looked up) Acireductone dioxygenase 3: MGEVVKDGREEVIQAWYMDDSEEDQRLPHHKDPKEFLSLDKLAELGVLSWRLDADNYETDEDLKKIRESRGYSYMDFCEVCPEKLPNYEVKVKSFFEEHLHTDEEIRYCVAGSGYFDVRDRNEAWIRVWVKKGGMIVLPAGIYHRFTVDSDNYIKAMRLFVGEPVWTPYNRPHDHLPARKEYIDNFVKVNEGGVIDASA",8.57
10,"UGT74F2, UDP-glucosyltransferase 74F2 (protein, UniProt O22822 1-449, looked up) UDP-glycosyltransferase 74F2: MEHKRGHVLAVPYPTQGHITPFRQFCKRLHFKGLKTTLALTTFVFNSINPDLSGPISIATISDGYDHGGFETADSIDDYLKDFKTSGSKTIADIIQKHQTSDNPITCIVYDAFLPWALDVAREFGLVATPFFTQPCAVNYVYYLSYINNGSLQLPIEELPFLELQDLPSFFSVSGSYPAYFEMVLQQFINFEKADFVLVNSFQELELHENELWSKACPVLTIGPTIPSIYLDQRIKSDTGYDLNLFESKDDSFCINWLDTRPQGSVVYVAFGSMAQLTNVQMEELASAVSNFSFLWVVRSSEEEKLPSGFLETVNKEKSLVLKWSPQLQVLSNKAIGCFLTHCGWNSTMEALTFGVPMVAMPQWTDQPMNAKYIQDVWKAGVRVKTEKESGIAKREEIEFSIKEVMEGERSKEMKKNVKKWRDLAVKSLNEGGSTDTNIDTFVSRVQSK",8.99

# Other lines, results leading:
row,Normalized Fold Change: SA vs Mock [fold],Molecule
1,3.61,"TOC86, translocon at the outer envelope membrane of chloroplasts 159"
2,2.26,Transducin/WD40 repeat-like superfamily protein (AT3G15610)
3,3.67,Transducin/WD40 repeat-like superfamily protein (AT3G45620)
4,3.32,"UBA1, ubiquitin-activating enzyme 1 (from UniProt P93028 1-1080)"
5,3.79,"RPP5, Disease resistance protein (TIR-NBS-LRR class) (protein, UniProt F4JNB7 1-1449, looked up) Disease resistance protein RPP5: MAASSSSGRRRYDVFPSFSGVDVRKTFLSHLIEALDGKSINTFIDHGIERSRTIAPELISAIREARISIVIFSKNYASSTWCLNELVEIHKCFNDLGQMVIPVFYDVDPSEVRKQTGEFGKVFEKTCEVSKDKQPGDQKQRWVQALTDIANIAGEDLLNGPNEAHMVEKISNDVSNKLITRSKCFDDFVGIEAHIEAIKSVLCLESKEARMVGIWGQSGIGKSTIGRALFSQLSIQFPLRAFLTYKSTSGSDVSGMKLSWEKELLSEILGQKDIKIEHFGVVEQRLKHKKVLILLDDVDNLEFLKTLVGKAEWFGSGSRIIVITQDRQFLKAHDIDLVYEVKLPSQGLALTMLCRSAFGKDSPPDDFKELAFEVAKLAGHLPLGLNVLGSSLRRRGKKEWMEMMPRLRNGLNGDIMKTLRVSYDRLHQKDQDMFLCIACLFNGFEVSYVKDLLEDNVGLTMLSEKSLIRITPDGHIEMHNLLEKLGREIDRAKSKGNPGKRQFLTNFEDIHEVVTEKTGTETLLGIRLPFEEYFSTRPLLIDKESFKGMRNLQYLKIGDWSDGGQPQSLVYLPLKLRLLDWDDCPLKSLPSTFKAEYLVNLIMKYSKLEKLWEGTLPLGSLKKMNLLCSKNLKEIPDLSNARNLEELDLEGCESLVTLPSSIQNAIKLRKLHCSGVILIDLKSLEGMCNLEYLSVDCSRVEGTQGIVYFPSKLRLLLWNNCPLKRLHSNFKVEYLVKLRMENSDLEKLWDGTQPLGRLKQMFLRGSKYLKEIPDLSLAINLEEVDICKCESLVTFPSSMQNAIKLIYLDISDCKKLESFPTDLNLESLEYLNLTGCPNLRNFPAIKMGCSDVDFPEGRNEIVVEDCFWNKNLPAGLDYLDCLMRCMPCEFRPEYLVFLNVRCYKHEKLWEGIQSLGSLEEMDLSESENLTEIPDLSKATNLKHLYLNNCKSLVTLPSTIGNLQKLVRLEMKECTGLEVLPTDVNLSSLETLDLSGCSSLRTFPLISKSIKWLYLENTAIEEILDLSKATKLESLILNNCKSLVTLPSTIGNLQNLRRLYMKRCTGLEVLPTDVNLSSLGILDLSGCSSLRTFPLISTNIVWLYLENTAIGEVPCCIEDFTRLRVLLMYCCQRLKNISPNIFRLRSLMFADFTDCRGVIKALSDATVVATMEDSVSCVPLSENIEYTCERFWGELYGDGDWDLGTEYFSFRNCFKLDRDARELILRSCFKPVALPGGEIPKYFTYRAYGDSLTVTLPRSSLSQSFLRFKACLVVDPLSEGKGFYRYLEVNFGFNGKQYQKSFLEDEELEFCKTDHLFFCSFKFESEMTFNDVEFKFCCSNRIKECGVRLMYVSQETEYNQQTTRSKKRMRMTSGTSEEYINLAGDQIVADTGLAALNMELSLGEGEASSSTSLEGEALSVDYMITKEQDEDIPFLDPVSDGTWRSFYSAE"
6,13.7,"RPP1, Disease resistance protein (TIR-NBS-LRR class) family (protein, UniProt F4J339 1-1194, looked up) Probable disease resistance protein RPP1: MGSVMSLGCSKRKATNQDVDSESRKRRKICSTNDAENCRFIQDESSWKHPWSLCANRVISVAAVALTNFRFQQDNQESNSSSLSLPSPATSVSRNWKHDVFPSFHGADVRRTFLSHIMESFRRKGIDTFIDNNIERSKSIGPELKEAIKGSKIAIVLLSRKYASSSWCLDELAEIMKCRQMVGQIVMTIFYEVDPTDIKKQTGEFGKAFTKTCRGKPKEQVERWRKALEDVATIAGYHSHSWRNEADMIEKISTDVSNMLNSFTPSRDFDGLVGMRAHMDMLEQLLRLDLDEVRMIGIWGPPGIGKTTIARFLFNQVSDRFQLSAIMVNIKGCYPRPCFDEYSAQLQLQNQMLSQMINHKDIMISHLGVAQERLRDKKVFLVLDEVDQLGQLDALAKETRWFGPGSRIIITTEDLGVLKAHGINHVYKVEYPSNDEAFQIFCMNAFGQKQPHEGFDEIAWEVTCLAGELPLGLKVLGSALRGKSKREWERTLPRLKTSLDGKIGSIIQFSYDVLCDEDKYLFLYIACLFNGESTTKVKELLGKFLDVKQGLHLLAQKSLISFDGERIHMHTLLEQFGRETSRKQFVHHGFTKRQLLVGARGICEVLDDDTTDSRRFIGIHLELSNTEEELNISEKVLERVHDFHFVRIDASFQPERLQLALQDLIYHSPKIRSLNWYGYESLCLPSTFNPEFLVELDMRSSNLRKLWEGTKQLRNLKWMDLSYSSYLKELPNLSTATNLEELKLRNCSSLVELPSSIEKLTSLQILDLENCSSLEKLPAIENATKLRELKLQNCSSLIELPLSIGTATNLKQLNISGCSSLVKLPSSIGDITDLEVFDLSNCSSLVTLPSSIGNLQNLCKLIMRGCSKLEALPININLKSLDTLNLTDCSQLKSFPEISTHISELRLKGTAIKEVPLSIMSWSPLADFQISYFESLMEFPHAFDIITKLHLSKDIQEVPPWVKRMSRLRDLSLNNCNNLVSLPQLSDSLDYIYADNCKSLERLDCCFNNPEIRLYFPKCFKLNQEARDLIMHTCIDAMFPGTQVPACFIHRATSGDSLKIKLKESPLPTTLRFKACIMLVKVNEELMSYDQTPMIVDIVIRDEHNDLKEKIYPSIYPSIYPLLTEHIYTFELDVEEVTSTELVFEFPQLNKRNWKIGECGILQRETRSLRRSSSPDLSPESSRVSSYDHCLRGD"
7,4.86,"UGT85A1, UDP-Glycosyltransferase superfamily protein (protein, UniProt Q9SK82 1-489, looked up) UDP-glycosyltransferase 85A1: MGSQIIHNSQKPHVVCVPYPAQGHINPMMRVAKLLHARGFYVTFVNTVYNHNRFLRSRGSNALDGLPSFRFESIADGLPETDMDATQDITALCESTMKNCLAPFRELLQRINAGDNVPPVSCIVSDGCMSFTLDVAEELGVPEVLFWTTSGCAFLAYLHFYLFIEKGLCPLKDESYLTKEYLEDTVIDFIPTMKNVKLKDIPSFIRTTNPDDVMISFALRETERAKRASAIILNTFDDLEHDVVHAMQSILPPVYSVGPLHLLANREIEEGSEIGMMSSNLWKEEMECLDWLDTKTQNSVIYINFGSITVLSVKQLVEFAWGLAGSGKEFLWVIRPDLVAGEEAMVPPDFLMETKDRSMLASWCPQEKVLSHPAIGGFLTHCGWNSILESLSCGVPMVCWPFFADQQMNCKFCCDEWDVGIEIGGDVKREEVEAVVRELMDGEKGKKMREKAVEWQRLAEKATEHKLGSSVMNFETVVSKFLLGQKSQD"
8,4.1,"G6PD6, glucose-6-phosphate dehydrogenase 6 (protein, UniProt Q9FJI5 1-515, looked up) Glucose-6-phosphate 1-dehydrogenase 6, cytoplasmic: MGSGQWHVEKRSTFRNDSFVREYGIVPETGCLSIIVLGASGDLAKKKTFPALFNLYRQGFLNPDEVHIFGYARTKISDEELRDRIRGYLVDEKNAEQAEALSKFLQLIKYVSGPYDAEEGFQRLDKAISEHEISKNSTEGSSRRLFYLALPPSVYPSVCKMIKTCCMNKSDLGGWTRIVVEKPFGKDLESAEQLSSQIGELFDESQIYRIDHYLGKELVQNMLVLRFANRFFLPLWNRDNIENVQIVFREDFGTEGRGGYFDEYGIIRDIIQNHLLQVLCLVAMEKPISLKPEHIRDEKVKVLQSVVPISDDEVVLGQYEGYRDDDTVPNDSNTPTFATTILRIHNERWEGVPFILKAGKALNSRKAEIRIQFKDVPGDIFRCQKQGRNEFVIRLQPSEAMYMKLTVKQPGLDMNTVQSELDLSYGQRYQGVAIPEAYERLILDTIKGDQQHFVRRDELKVAWEIFTPLLHRIDKGEVKSIPYKPGSRGPKEADQLLEKAGYLQTHGYIWIPPTL"
